Experiments:
[1] = molecular target: T1, FIV N-terminal capsid domain (feline immunodeficiency virus (FIV)); experiment: ITC
T1 chain: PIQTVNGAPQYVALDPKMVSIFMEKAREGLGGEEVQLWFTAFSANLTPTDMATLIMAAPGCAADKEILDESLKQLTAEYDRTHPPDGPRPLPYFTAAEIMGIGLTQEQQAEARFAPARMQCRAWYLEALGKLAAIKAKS

[2] = molecular target: HIV-1 M-group (NL4-3) N-terminal capsid domain (HIV-1 M-group (NL4-3)); experiment: ITC

B1: cyclophilin domain from human NUP358 (domain or fragment)
chain: ELSKETNPVVFFDVCADGEPLGRITMELFSNIVPRTAENFRALCTGEKGFGFKNSIFHRVIPDFVCQGGDITKHDGTGGQSIYGDKFEDENFDVKHTGPGLLSMANQGQNTNNSQFVITLKKAEHLDFKHVVFGFVKDGMDTVKKIESFGSPKGSVCRRITITECGQI
**Q.** How did the Kd [1] turn out when B1 was run?
**A.** The Kd was 290 µM.

B2: NUP358Cyp V61M/V113F (domain or fragment)
chain: ELSKETNPVVFFDVCADGEPLGRITMELFSNIVPRTAENFRALCTGEKGFGFKNSIFHRVIPDFMCQGGDITKHDGTGGQSIYGDKFEDENFDVKHTGPGLLSMANQGQNTNNSQFFITLKKAEHLDFKHVVFGFVKDGMDTVKKIESFGSPKGSVCRRITITECGQI
**Q.** With B2 as the binder, how does the Kd [2] read?
**A.** The Kd was 31 µM.

B3: NUP358Cyp V113F (domain or fragment)
chain: ELSKETNPVVFFDVCADGEPLGRITMELFSNIVPRTAENFRALCTGEKGFGFKNSIFHRVIPDFVCQGGDITKHDGTGGQSIYGDKFEDENFDVKHTGPGLLSMANQGQNTNNSQFFITLKKAEHLDFKHVVFGFVKDGMDTVKKIESFGSPKGSVCRRITITECGQI
**Q.** B3 was tested. Which Kd [2] did it give?
**A.** Its Kd is 92 µM.
